Reference: patent US20170349669A1 (Hoffmann-La Roche, published 2017)

T1: TWEAK (human, UniProt O43508 94-249, limits assumed)
T1 construct: The assay paragraph says only 'TWEAK'; also called human TWEAK; TNF-related weak inducer of apoptosis
T1 sequence (looked up): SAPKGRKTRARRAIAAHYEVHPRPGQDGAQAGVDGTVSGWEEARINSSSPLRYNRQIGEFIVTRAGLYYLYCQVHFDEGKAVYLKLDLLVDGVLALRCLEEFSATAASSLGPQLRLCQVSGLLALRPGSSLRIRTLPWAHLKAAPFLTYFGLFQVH

T2: human IL17 (human, UniProt Q16552 24-155)
T2 construct: Used as analyte in solution; also called IL17-A
T2 sequence (looked up): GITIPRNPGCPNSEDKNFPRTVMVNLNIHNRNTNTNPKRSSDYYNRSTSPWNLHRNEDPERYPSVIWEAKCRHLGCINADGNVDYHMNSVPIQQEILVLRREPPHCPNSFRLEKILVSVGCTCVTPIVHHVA

T3: human VEGFA-121-His (human, UniProt P15692-9 27-147)
T3 construct: Captured on an anti-His antibody surface; P15692 is the canonical VEGF-A entry, and the 121 isoform is one of its splice forms; also called VEFGA-121-His; not shown: His tag
T3 sequence (looked up): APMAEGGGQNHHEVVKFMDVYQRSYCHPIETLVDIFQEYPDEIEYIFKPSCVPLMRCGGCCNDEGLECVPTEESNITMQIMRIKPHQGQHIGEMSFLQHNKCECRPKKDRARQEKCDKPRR

T4: human Ang-2-RBD-Fc (human, UniProt O15123 275-496, limits assumed)
T4 construct: domain: RBD; Used as analyte in solution; The KD is called apparent; not shown: Fc part
T4 sequence (looked up): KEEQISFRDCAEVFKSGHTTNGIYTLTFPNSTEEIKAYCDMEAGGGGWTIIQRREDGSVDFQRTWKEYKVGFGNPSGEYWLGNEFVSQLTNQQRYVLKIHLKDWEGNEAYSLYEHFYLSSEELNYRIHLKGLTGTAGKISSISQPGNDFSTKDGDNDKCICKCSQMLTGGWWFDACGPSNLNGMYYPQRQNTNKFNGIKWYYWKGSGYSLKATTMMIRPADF


Experiments:
TWEAK = target: T1, TWEAK; assay: SPR Biacore T200 25 C, apparent KD, TWEAK amine-coupled on C1 chip, antibody as analyte
human IL17 = target: T2, human IL17; assay: SPR Biacore T200 25 C, antibody captured via anti-human F(ab')2, human IL17 as analyte, 1:1 Langmuir
Description: Around 6000 resonance units (RU) of the capturing system (15 μg/ml goat anti human F(ab′)2; Order Code: 28958325; GE Healthcare Bio-Sciences AB, Schweden) were coupled on a CM5 chip at pH 5.0 by using an amine coupling kit supplied by the GE Healthcare. The sample and system buffer was PBS-T (10 mM phosphate buffered saline including 0.05% Tween 20) pH 7.4. The bispecific antibody was captured by injecting a 50 nM solution for 90 sec at a flow of 10 μl/min. Association was measured by injection human IL17 in various concentrations in solution for 3 min at a flow of 30 μl/min starting with 50 nM in 1:1 serial dilutions. The dissociation phase was monitored for up to 10 min and triggered by switching from the sample solution to running buffer. The surface was regenerated twice by 60 sec wash with a 10 mM glycine pH 2.1 solution at a flow rate of 30 μl/min. Bulk refractive index differences were corrected by subtracting the response obtained from a goat anti human F(ab′)2 surface. Blank injections are also subtracted (=double referencing). For calculation of apparent KD and other kinetic parameters, the Langmuir 1:1 model was used.

human VEGFA-121-His = target: T3, human VEGFA-121-His; assay: SPR Biacore T200, VEGFA-121-His captured via anti-His, antibody as analyte, 1:1 Langmuir
Description: Binding of indicated antibodies to human VEGFA-121 was investigated by surface plasmon resonance using a BIACORE® T200 instrument (GE Healthcare). Around 10000 (RU) of anti His antibody (1 μg/ml anti His antibody; Order Code: 28995056; GE Healthcare Bio-Sciences AB, Sweden) were coupled on a Series S CM5 chip (GE Healthcare BR-1005-30) at pH 5.0 by using an amine coupling kit supplied by the GE Healthcare. HBS-N (10 mM HEPES, 150 mM NaCl pH 7.4, GE Healthcare) was used as running buffer during the immobilization procedure. For the following kinetic characterization, sample and running buffer was PBS-T (10 mM phosphate buffered saline including 0.05% Tween20) at pH 7.4. The flow cell was set to 25° C.—and the sample block set to 12° C.—and primed with running buffer twice prior to kinetic characterization.
VEFGA-121-His was captured by injecting a 0.5 μg/ml solution for 30 sec at a flow of 5 μl/min. The association was measured by injection of the indicated antibodies in various concentrations in solution for 180 sec at a flow of 30 μl/min starting with 1000 nM in 1:3 serial dilutions. The dissociation phase was monitored for up to 600 sec and triggered by switching from the sample solution to running buffer. The surface was regenerated by 60 sec washing with a Glycine pH 1.5 solution at a flow rate of 30 μl/min. Bulk refractive index differences were corrected by subtracting the response obtained from a anti His antibody surface. Blank injections are also subtracted (=double referencing). For calculation of KD and other kinetic parameters the Langmuir 1:1 model was used.

human Ang-2-RBD-Fc = target: T4, human Ang-2-RBD-Fc; assay: SPR Biacore T200, apparent KD, antibody captured via anti-human F(ab')2, Ang2-RBD-Fc as analyte
Description: Binding of indicated antibodies to human Ang-2-RBD-Fc was investigated by surface plasmon resonance using a BIACORE® T200 instrument (GE Healthcare). Around 8000 (RU) of goat anti human F(ab′)₂ (10 μg/ml anti human F(ab)′₂; Order Code: 28958325; GE Healthcare Bio-Sciences AB, Sweden) were coupled on a Series S CM5 chip (GE Healthcare BR-1005-30) at pH 5.0 by using an amine coupling kit supplied by the GE Healthcare. HBS-N (10 mM HEPES, 150 mM NaCl pH 7.4, GE Healthcare) was used as running buffer during the immobilization procedure. For the following kinetic characterization, sample and running buffer was PBS-T (10 mM phosphate buffered saline including 0.05% Tween20) at pH 7.4. The flow cell was set to 25° C.—and the sample block set to 12° C.—and primed with running buffer twice prior to kinetic characterization.
The bispecific antibody was captured by injecting a 5 nM solution for 25 sec at a flow of 5 μl/min. The association was measured by injection of human Ang2-RBD-Fc in various concentrations in solution for 120 sec at a flow of 30 μl/min starting with 100 nM in 1:3 serial dilutions. The dissociation phase was monitored for up to 180 sec and triggered by switching from the sample solution to running buffer. The surface was regenerated by 60 sec washing with a Glycine pH 2.1 solution at a flow rate of 30 μl/min. Bulk refractive index differences were corrected by subtracting the response obtained from a goat anti human F(ab′)₂ surface. Blank injections are also subtracted (=double referencing). For calculation of apparent KD the Langmuir 1:1 model was used.

Binder	Kd (TWEAK)	Kd (human IL17)	Kd (human VEGFA-121-His)	Kd (human Ang-2-RBD-Fc)
TweakIL17_102 (bispecific antibody, human IgG4 S228P, kappa, also called TweakIL17_0102) heavy 1: DIQMTQSPSSVSASVGDRVTITCQASQNIYSNLAWYQQKPGKAPKLLIYTASYLASGVPSRFSGSGSGTDYTLTISSLQPEDFATYYCQTAYYNSRPDTVAFGGGTKVEIKRTVAAPSVFIFPPSDEQLKSGTASVVCLLNNFYPREAKVQWKVDNALQSGNSQESVTEQDSKDSTYSLSSTLTLSKADYEKHKVYACEVTHQGLSSPVTKSFNRGECPPCPPCPAPEFEGGPSVFLFPPKPKDTLMISRTPEVTCVVVDVSQEDPEVQFNWYVDGVEVHNAKTKPREEQFNSTYRVVSVLTVLHQDWLNGKEYKCKVSNKGLPSSIEKTISKAKGQPREPQVYTLPPCQEEMTKNQVSLWCLVKGFYPSDIAVEWESNGQPENNYKTTPPVLDSDGSFFLYSRLTVDKSRWQEGNVFSCSVMHEALHNHYTQKSLSLSL light 1: QVQLVQSGAEVKKPGSSVKVSCKASGFDFSTYYMSWVRQAPGQGLEWMGTVYVRQGTTYYASWLNGRVTITADESTSTAYMELSSLRSEDTAVYYCARGGYNYDDAFVIWGQGTLVTVSSASTKGPSVFPLAPCSRSTSESTAALGCLVKDYFPEPVTVSWNSGALTSGVHTFPAVLQSSGLYSLSSVVTVPSSSLGTKTYTCNVDHKPSNTKVDKRVESKYG heavy 2: EVQLVESGGGLVQPGGSLRLSCAASGFSLDSYGVHWVRQATGKGLEWVSVIWSDGTTTYNSALKSRFTISRENAKNSLYLQMNSLRAGDTAVYYCARDTHYRLYYYAMDYWGQGTTVTVSSASTKGPSVFPLAPCSRSTSESTAALGCLVEDYFPEPVTVSWNSGALTSGVHTFPAVLQSSGLYSLSSVVTVPSSSLGTKTYTCNVDHKPSNTKVDERVESKYGPPCPPCPAPEFEGGPSVFLFPPKPKDTLMISRTPEVTCVVVDVSQEDPEVQFNWYVDGVEVHNAKTKPREEQFNSTYRVVSVLTVLHQDWLNGKEYKCKVSNKGLPSSIEKTISKAKGQPREPQVCTLPPSQEEMTKNQVSLSCAVKGFYPSDIAVEWESNGQPENNYKTTPPVLDSDGSFFLVSRLTVDKSRWQEGNVFSCSVMHEALHNHYTQKSLSLSL light 2: DIVMTQSPLSLPVTPGEPASISCRSSQSLVHSNGDTYFHWYLQKPGQSPQLLIYKVSNRFSGVPDRFSGSGSGTDFTLKISRVEAEDVGVYYCSQTTHAPFTFGQGTKLEIKRTVAAPSVFIFPPSDKKLKSGTASVVCLLNNFYPREAKVQWKVDNALQSGNSQESVTEQDSKDSTYSLSSTLTLSKADYEKHKVYACEVTHQGLSSPVTKSFNRGEC	< 0.1 nM	0.1 nM		
Ang2VEGF_469 (bispecific antibody, human IgG1, kappa, The charged substitutions are in the crossed (VEGF) arm) heavy 1: not shown light 1: EVQLVESGGGLVQPGGSLRLSCAASGYTFTNYGMNWVRQAPGKGLEWVGWINTYTGEPTYAADFKRRFTFSLDTSKSTAYLQMNSLRAEDTAVYYCAKYPHYYGSSHWYFDVWGQGTLVTVSSASTKGPSVFPLAPSSKSTSGGTAALGCLVEDYFPEPVTVSWNSGALTSGVHTFPAVLQSSGLYSLSSVVTVPSSSLGTQTYICNVNHKPSNTKVDEKVEPKSC heavy 2: not shown light 2: QPGLTQPPSVSVAPGQTARITCGGNNIGSKSVHWYQQKPGQAPVLVVYDDSDRPSGIPERFSGSNSGNTATLTISRVEAGDEADYYCQVWDSSSDHYVFGTGTKVTVLRTVAAPSVFIFPPSDEQLKSGTASVVCLLNNFYPREAKVQWKVDNALQSGNSQESVTEQDSKDSTYSLSSTLTLSKADYEKHKVYACEVTHQGLSSPVTKSFNRGEC			13 nM	3 nM
Ang2VEGF_470 (bispecific antibody, human IgG1, kappa, The charged substitutions are in the crossed (VEGF) arm, with Q124E added in the Ang2 light chain) heavy 1: not shown light 1: EVQLVESGGGLVQPGGSLRLSCAASGYTFTNYGMNWVRQAPGKGLEWVGWINTYTGEPTYAADFKRRFTFSLDTSKSTAYLQMNSLRAEDTAVYYCAKYPHYYGSSHWYFDVWGQGTLVTVSSASTKGPSVFPLAPSSKSTSGGTAALGCLVEDYFPEPVTVSWNSGALTSGVHTFPAVLQSSGLYSLSSVVTVPSSSLGTQTYICNVNHKPSNTKVDEKVEPKSC heavy 2: not shown light 2: QPGLTQPPSVSVAPGQTARITCGGNNIGSKSVHWYQQKPGQAPVLVVYDDSDRPSGIPERFSGSNSGNTATLTISRVEAGDEADYYCQVWDSSSDHYVFGTGTKVTVLRTVAAPSVFIFPPSDEELKSGTASVVCLLNNFYPREAKVQWKVDNALQSGNSQESVTEQDSKDSTYSLSSTLTLSKADYEKHKVYACEVTHQGLSSPVTKSFNRGEC			12 nM	3 nM
